This is an account of results in patent US20110165679.

Holding throughout (experiment): cell_activity
For one data set, the target named is T1, I-CreI (UniProt P05725).
T1 sequence: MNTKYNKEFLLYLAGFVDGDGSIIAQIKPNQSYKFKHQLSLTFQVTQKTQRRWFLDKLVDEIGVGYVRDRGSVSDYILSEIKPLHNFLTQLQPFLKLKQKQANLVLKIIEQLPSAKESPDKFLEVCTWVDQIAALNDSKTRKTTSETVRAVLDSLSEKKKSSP
As to conditions: BMS maize cells.

For data set [1], the target named is T2, I-SceI (maize codon-modified moI-SceI) (UniProt P03882).
T2 sequence: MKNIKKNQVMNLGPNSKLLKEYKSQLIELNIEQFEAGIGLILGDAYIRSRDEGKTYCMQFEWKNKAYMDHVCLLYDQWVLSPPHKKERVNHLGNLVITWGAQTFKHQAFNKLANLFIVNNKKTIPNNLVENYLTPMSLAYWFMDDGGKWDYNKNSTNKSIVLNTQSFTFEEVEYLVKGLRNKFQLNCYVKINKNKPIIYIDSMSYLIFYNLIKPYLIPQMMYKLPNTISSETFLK
The following applies: BMS maize cells.

The test system of data set [2] is Lig3-4+ (engineered meganuclease variant). As to conditions: 1 of 353 clones mutated; BMS maize cells.
The test system of data set [3] is Lig3-4++ (engineered meganuclease variant). As to conditions: 56 of 237 clones mutated; BMS maize cells.
The test system of data set [4] is Lig3-4 (engineered I-CreI-type single-chain meganuclease). The following applies: 3 of 637 clones mutated; BMS maize cells.

For the substance Double I-CreI site, in the data set with I-CreI (50 of 66 clones mutated), the activity (% mutation rate) is 76.

Substance Double I-SceI site returned an activity (% mutation rate) in data set [1] (57 of 63 clones mutated) of 90.

On to “ATATACCTCACACGTACGCGTA (double strand) [LIG-1 site (near liguleless1)]”, for which the activity (% mutation rate) in data set [2] was 0.3; in data set [3], 24; in data set [4], 0.5.

As for I-CreI site, the activity (% mutation rate) in the data set with I-CreI (318 of 904 clones mutated, 0 of 34 without endonuclease) was 35.

Substance I-SceI site came in with an activity (% mutation rate) in data set [1] (49 of 58 clones mutated, T-DNA replicon assay, 0 of 34 without endonuclease) of 84.
